We go through 2 substances from patent US5130298A, “Stabilized compositions containing epidermal growth factor” (Ethicon, Inc., priority 1989, dated 1992).

Data set [1] in a line: EGF stability with zinc ion at pH 5.5 to 6.5, aged 28 days at 46° C., reverse phase HPLC of Peaks C, D, X, Y. It is filed as physicochemical. As for the experimental part: Recombinantly produced human EGF (Chiron Corporation, Emeryville, Calif.) was used in the following experiments. EGF stability with zinc ion was tested at pH 5.5 to 6.5. Lyophilized EGF was reconstituted in 50 mM sodium acetate at PH 5.5. A solution of zinc chloride was then added to this EGF solution. Alternatively, a solution of zinc acetate or crystals of a zinc salt could have been added.
The samples were permitted to age over a 28 day period and then HPLC analysis was used to study the structural changes involving the formation of new species (e.g., Peaks C, X and Y) of EGF under various storage conditions and in the presence of new formulations. Reverse phase HPLC can be used for quantitative and qualitative analysis of EGF.
(§1) The zinc-EGF complex must be dissociated before HPLC analysis because the complex cannot be run on the HPLC column as is. Therefore, prior to HPLC, the pH of the samples to be analyzed was adjusted to 3.0. Alternatively, EDTA (a chelating agent) may be used to reverse crystallization. Reverse phase HPLC was conducted using a Vydac C-4 column (4.6 mm×25 cm, 5μm). The flow rate was 0.8 ml/min at 26° C. using a linear gradient of 26% to 32% acetonitrile (0.1% TFA) over 26 minutes.

Data set [2] is described as follows: Stability of precipitated EGF at pH 4.6, 7 days at 46° C., with or without zinc ion, reverse phase HPLC. The note with it: pH 4.6, precipitated, sodium acetate buffer. It is filed as physicochemical. As for the experimental part:
as §1
This experiment was designed to answer the stability of the zinc-EGF complex results from the exclusion of water by the large and insoluble complex or alternatively from the direct interaction of zinc ion with specific amino acids in the protein. A zinc-EGF solution and control were prepared as in Example 1 and the samples were adjusted to a PH of 4.6. At this pH EGF naturally precipitates out of solution since it is at its isoelectric point. Two sets of the precipitated EGF at pH 4.6 in sodium acetate buffer were incubated for 7 days at 46° C.

As for “With Zn++: complex ion wherein zinc is coordinately bound to recombinant human EGF; precipitates at pH 4.0-7.0”, the “% Peak C” value in data set [1] (pH 5.5, 28 days at 46° C.) was found to be 3%; in data set [1] (pH 6.0, 28 days at 46° C.) it was 3%; in data set [1] (pH 6.5, 28 days at 46° C.), 1%; in data set [2], 2%. Moreover, the “% Peak D (native EGF)” value in data set [1] (pH 5.5, 28 days at 46° C.) stood at 82%; in data set [1] (pH 6.0, 28 days at 46° C.), 75%. Also, the “% Peak X” value is 0% in data set [1] (pH 5.5, 28 days at 46° C.); 4% in data set [1] (pH 6.0, 28 days at 46° C.); 0% in data set [1] (pH 6.5, 28 days at 46° C.); 7% in data set [2]. The “% Peak Y” value in data set [2] is recorded as 0%.

On to “Without Zn++: Recombinantly produced human epidermal growth factor (Chiron Corporation), 53 amino acid polypeptide, without zinc; control”, for which the “% Peak C” value in data set [1] (pH 5.5, 28 days at 46° C.) was 3%; in data set [1] (pH 6.0, 28 days at 46° C.), 6%; in data set [1] (pH 6.5, 28 days at 46° C.), 6%; in data set [2], 0%. Also, the “% Peak D (native EGF)” value was found to be 30% in data set [1] (pH 5.5, 28 days at 46° C.); 51% in data set [1] (pH 6.0, 28 days at 46° C.); 52% in data set [1] (pH 6.5, 28 days at 46° C.); 47% in data set [2]. Also, the “% Peak Y” value in data set [1] (pH 5.5, 28 days at 46° C.) worked out at 25%; in data set [1] (pH 6.0, 28 days at 46° C.) it was 21%; in data set [1] (pH 6.5, 28 days at 46° C.), 21%; in data set [2], 27%. Also, the “% Peak X” value in data set [2] was determined as 26%.
